Geometric Mean : FL6-A data for 1 molecule are collected here from patent publication US20250041437A1, “HUMANIZED MUC1 ANTIBODY AND ANTIBODY DRUG CONJUGATE” (Sun Pharma Advanced Research Company Limited, priority 2023, published 2025).

The target in experiment [1] is human MUC1 on cells (DA3-TM transfectants and human cancer cell lines SKOV3, COLO357, HT29 and others) (human) (UniProt P15941). As to the kind of experiment: flow cytometry on DA3-TM cells; table row 2 of 5 from the top, concentration not printed in this figure. For orientation: Flow cytometry measures light scatter and fluorescence of single cells or particles in a stream.
Chain of human MUC1 on cells (DA3-TM transfectants and human cancer cell lines SKOV3, COLO357, HT29 and others) (human) (P15941 24-1255 limits assumed): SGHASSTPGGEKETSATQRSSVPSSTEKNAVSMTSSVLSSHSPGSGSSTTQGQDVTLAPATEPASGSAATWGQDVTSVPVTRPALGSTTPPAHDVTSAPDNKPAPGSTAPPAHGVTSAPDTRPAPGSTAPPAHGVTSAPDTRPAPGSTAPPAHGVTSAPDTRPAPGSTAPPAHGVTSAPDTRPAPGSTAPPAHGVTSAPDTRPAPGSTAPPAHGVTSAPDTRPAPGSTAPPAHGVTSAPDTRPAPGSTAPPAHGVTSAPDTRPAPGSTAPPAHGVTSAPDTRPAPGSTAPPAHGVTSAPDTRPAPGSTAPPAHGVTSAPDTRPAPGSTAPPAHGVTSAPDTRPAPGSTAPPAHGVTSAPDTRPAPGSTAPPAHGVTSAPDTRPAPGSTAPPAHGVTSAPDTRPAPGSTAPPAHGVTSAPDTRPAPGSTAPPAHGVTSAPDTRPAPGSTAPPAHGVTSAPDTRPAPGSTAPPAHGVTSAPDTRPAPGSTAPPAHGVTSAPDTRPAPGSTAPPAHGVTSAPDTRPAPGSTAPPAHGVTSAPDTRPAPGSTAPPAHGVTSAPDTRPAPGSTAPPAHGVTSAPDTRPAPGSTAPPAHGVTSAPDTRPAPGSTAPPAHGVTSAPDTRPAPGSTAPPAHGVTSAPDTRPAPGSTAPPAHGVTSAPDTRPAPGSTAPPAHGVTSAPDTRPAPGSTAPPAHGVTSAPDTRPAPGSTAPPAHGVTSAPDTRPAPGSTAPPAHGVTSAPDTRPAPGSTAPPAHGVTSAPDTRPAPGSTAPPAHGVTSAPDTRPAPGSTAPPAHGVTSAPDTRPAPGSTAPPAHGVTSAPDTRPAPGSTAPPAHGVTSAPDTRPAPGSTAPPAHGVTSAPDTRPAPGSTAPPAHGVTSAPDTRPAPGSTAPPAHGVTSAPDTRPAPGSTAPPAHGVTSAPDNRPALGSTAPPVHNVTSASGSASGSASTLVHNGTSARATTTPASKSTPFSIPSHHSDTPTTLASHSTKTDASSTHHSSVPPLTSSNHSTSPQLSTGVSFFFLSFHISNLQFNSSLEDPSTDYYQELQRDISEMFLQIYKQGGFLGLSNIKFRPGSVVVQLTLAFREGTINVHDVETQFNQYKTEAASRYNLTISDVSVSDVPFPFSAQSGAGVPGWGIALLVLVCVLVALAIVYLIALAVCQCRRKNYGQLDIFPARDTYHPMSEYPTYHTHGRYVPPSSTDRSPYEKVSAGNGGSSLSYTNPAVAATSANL

The target is the same in experiment [2]. As to the kind of experiment: flow cytometry on DA3-TM cells; table row 5 of 5 from the top, concentration not printed in this figure.
Experiment [3] has the same target. The experiment is described as follows: flow cytometry on DA3-TM cells; table row 3 of 5 from the top, concentration not printed in this figure.
Experiment [4] has the same target. As to the kind of experiment: flow cytometry on DA3-TM cells; table row 4 of 5 from the top, concentration not printed in this figure.

B1: Hu-5F3 (HM1 LM2) (antibody, V domains shown)
VH: EIQLVQSGAEVKKPGSSVKVSCKVTGHSITRGSSWHWMRQAPGQGLEWIGYIHYGGGTSYNPSLKSRATLTVDTSTNTAYMELSSLRSEDTAFYFCARYSYDITYRWFFDVWGQGTLVTVSS
VL: DIQMTQSPSTLSASVGDRVTITCRASQNIGTSIHWYQQKPGKAPKLLIKRASESISGVPSRFSGSGSGTEFTLTISSLQPDDFATYYCQQNNNWPLTFGQGTKVEVK
For the molecule B1, the Geometric Mean : FL6-A was found to be 114 in experiment [1], 35.9 in experiment [2], 71.4 in experiment [3] and 45.3 in experiment [4].
